This series can be described thus: yeast display, Sf9 membrane polyspecificity reagent, FACS + sequencing; frameworks hold sequencing errors. The method in brief:
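Nanobodies came from a synthetic yeast display library in Saccharomyces cerevisiae BJ5465, induced with galactose for 36–48 hours and stained for 1 hour at 4 °C with 10% biotinylated, detergent-solubilized Sf9 membrane reagent. Cells were enriched on streptavidin microbeads and then FACS-sorted, with low and high (top ~1%) gates set on anti-HA fluorescence for expression and streptavidin fluorescence for reagent binding. Each polyreactivity label reflects the gate a clone came from. Genes were amplified by colony PCR, sequenced by MiSeq 2 × 250 and filtered by CDR length.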
For “QVQLVESGGGLVQAGGSLRLSCAASGRTFYSYVMGWYRQAPGKERELVAAINKTGGGTYYADSVKGRFTISRDNAKNTVYLQMNSLKPEDTAVYYCAAETGTGETRYYRYWDYYYWGQGTQVTVSS”, the “polyreactivity (PSR sort gate)” value is listed as “high polyreactivity”. With “QVQLVESGGGLVQAGGSLRLSCAASGSIFFRNVMGWYRQAPGKERELVAAISRSGSTNYADSVKGRFTISRDNAKNTVYLQMNSLKPEDTAVYYCAAQQWRRGRYRDTAGPMFAYDYWGQGTQVTVSS” the entry was “low polyreactivity”; with “QVQLVESGGGLVQAGGSLRLSCAASGRTFGYYAMGWYRQAPGKERELVASISSSGGNTYYADSVKGRFTISRDNAKNTVYLQMNSLKPEDTAVYYCAATYGWWPRDYYYWGQGTQVTVSS”, “high polyreactivity”.

Consider “QVQLVESGGGLLQAGGSLRVSCAASGSIIFFYAMGWYRQAPGKERELVAAISKSPSSTYYADSVKGRFTISRDNAKNTVYLQMNSLKPEDTAVYYCNTGYSGIQYYYWGQGTQVTVSS”, for which the “polyreactivity (PSR sort gate)” value is “low polyreactivity”. Turning to “QVQLVESGGGLVQAGGSLRLSCAASGRIFFGYAMGWYRQAPGKERELVASISRGGSTNYADSVKGRFTISRDNAKNTVYLEMNSLKPEDTAVYYCAASRRRWSQQQGYGYYYWGQGTQVTVSS”, the “polyreactivity (PSR sort gate)” value is “high polyreactivity”. Consider “QVQLVESGGGLVQAGGSLRLSCAASGFTLAGYAMGWYRQAPGKERELVSAITTSGGSTFYADSVKGRFTISRDNAKNTDYLKMNSLKPEDTAVYYCAAAIRTRTSYYRFDYWGQGTQVTVSS”, for which the “polyreactivity (PSR sort gate)” value is listed as “high polyreactivity”. The same measure for “QVQLVESGGGLVQAGGSLRLSCASSGITFDYYAMGWYRQAPGKERELVASISSDSSTYYADSVKGRFTISRDNAKNTVYLQMNSLKPEDTAVYYCNAGDTTFPFYYWGQGTQVTVSS”: “low polyreactivity”; for “QVQLVESGGGLVQAGGRLRLSCAASGFTFYDNAMGWYRQAPGKERELVAGINSGDSTFYAVSVKGRITISRDNAKNTVYLQMTSLKPEDTGFYYGAADWAWLQWSYDYWGQGTQVTVSS”: “low polyreactivity”; for “QVQLVESGGGLVQAGGSLRLSCAASGSIFPDYAMGWYRTAPGKERELVAAISWDGGRTYYADSVKGRFTISRDNAKNTVYLQMNSLKPEDTAVYYCYWYDYWGQGTQVTVSS”: “high polyreactivity”. With “QVQLVESGGCLVQAGGSLRLSCAASGNTFTSYAMGWYRQAPGKERELVAAISASGSSTYYADSVKGRFTISRDNAKNTVYLQMNSLKPEDTAVYYCNAVKYRVESSYDYWGQGTQVTVSS” the entry was “low polyreactivity”; with “QVQLVESGGGLVQAGGSLRLSCAASGRTLRSYTMGWYRQAPGKERELVAAINWNGGTTYYADSVKGRFTISRDNAKNTVYLQMNSLKAEDTAVYYCAAESSRWHTYWYSLSNLGRGYWGQGTQVTVSS”, “high polyreactivity”; with “QVQLVESGGGLVQAGGSLRLSCAASGRILYSYAMGWYRQAPGKERELVAAISSTGSTYYADSVKGRFTISRDNAKNTVYLQMNSLKPEDTAVYYCAATFYPYQVHHYYYWGQGTQVTVSS”, “low polyreactivity”.

As for “QVQLVESGGGLVQAGGSLRLSCAASGFIFKINAMGWYRQAPGKERELVAAINWTGGNTYYADSVKGRFTISRDNAKNTVYLQMNSLKPEDTAVYYCAAEFDVGWTWDYYWGQGTQVTVSS”, the “polyreactivity (PSR sort gate)” value was “high polyreactivity”.

On to “QVQLVESGGGLVQAGGSLRLSCAASGSTFTINAKGWYRQAPGKERELVAAISWSGGTTYYADSVKGRFTISRDNAKNTVYLQMTSLKPEDTAVYYCAARSYYGYDYWGQGTQVTVSS”, for which the “polyreactivity (PSR sort gate)” value is reported as “high polyreactivity”. The same measure for “QVQLVESVGGLVQAGGSLRLSCAASGFTFHDYAMGWYRQAPGKERELVAAIYFSGGRTYYADSVKGRFTISRDNAKNTVYLQMNSLKPEDNAVYYCNVPYYSFRELSSYYWGQGTQVTVSS”: “high polyreactivity”. With “QVQLVESGGGLVQAGGSLRLSCAASGHTFAYNAMGWYRQAPGKEREFVAAITWSTDNTYYADSVKGRFTISRDYAKYTVYLQMNSLKPEDTAVYYCAVDVYFYYRHYGYWGQGTQVTVSS” the entry was “low polyreactivity”; with “QVQLVESGGGLVQAGGSLRISCAASGRTFHYNVMGWYTQAPGKERELVAAITNTGGSTYYADSVKGRFTISRDNAKNTVYLQMNSLKPEDTAVYYCAAVIWGRRYGAYPYEYWGQGTQVTVSS”, “low polyreactivity”. With “QVQLVESGGGLVQAGGSLRLSCAASGRIFGINAMGWYRQAPGKERELVAAITSGVSTNYADSVKGRFTISRDNAKNTVYLQMNSLKPEDTAVYYCATRRNRSYDYWGQGTQVTVSS” the entry was “low polyreactivity”; with “QVQLVESAAGLVQAGGSLRISCAASGYTFWLYAMGWYRQAPGKEREFVAAISTSGGSTYADSVKGRFTISRDNAKNTVYLQMNSLKPEDTAVYYCNAGYLLYYDYHLFYWGQGTQVTVSS”, “low polyreactivity”; with “QVQLVESGGGLVQAGGSLRLSCAASGSIFNQYAMGWYRQAPGKERELVAAISSGSTYYADSVKGRFIISRDNAETTVYLQMYSLKPEDTAVYYCNAYYVNYVSNYESWGQGTQVTVSS”, “high polyreactivity”.

With “QVQLVESGGGLVQARGSLRLSSAPSGRTFTVYAMGWYRHARGKERELVAAIRRTGSTYYADSVKGRFTISRDNAKNTVYLQMNSLKPEDTAVYYCYARPSTGWSIYGVDYWGQGTQGTVSS”, the “polyreactivity (PSR sort gate)” value is given as “low polyreactivity”. Regarding “QVQLVESGGGLVQAGGSLRLSCAASGRTFSGNAMGWYRQAPGKERELVAAINWRGGRTYYADSVKGRFTISRDNAKNTVYLQMNSLKPEDTAVYYCAVSAYKGYDYWGQGTQVTVSS”, the “polyreactivity (PSR sort gate)” value was “high polyreactivity”.

Turning to “QVQLVESGGGLVQAGGSLRLSCAASGSIFIDNAMGWDRQAPGKEREFVAAISKSGTSTYYADSVKGRFTISRDNAKNTVYLQMNSLKPEDTAVYYCAVRRPRPYSNYYYWGQGTQVTVSS”, the “polyreactivity (PSR sort gate)” value is “high polyreactivity”.

Consider “QVQLLESGGGLVQAGGSLRLSCAASGFIICYNGMGWYRQAPGKERELVAGITYSDGSTYYADSVKGRFTISRDNAKITVYLQMNSLKPEDTAVYYCAVDVFYYWAEDYDYWGQGTQVTVSS”, for which the “polyreactivity (PSR sort gate)” value is “low polyreactivity”. The same measure for “QVQLVESGGGLVQAGGSLRLSCAASGSTFTWNVMGWYRQAPAKERELVASITSGDSTYADSVKGRFTISRDNAKNTVYLQMNSLKPEDTAVYYCNVGYDQEKYGYWGQGTQVTVSS”: “low polyreactivity”; for “QVQLVESGGGLVQAGGSLRLSCAASGFTFAHNAMGWYRQAPGKERELVAAITSRGGSTYYADSVKGRFTISRDNAKNTVYLQMNSLKPEDTAVYYCAARGVNRQVFNYWGQGTQVTVSS”: “high polyreactivity”. With “QVQLVESGGGLVQAGGSLRLSCAASGLTFYSYAMGWYRQAPGKERELVATIRWSGGSTYYADSVKGRFTISRDNAKNTVYLQMNSLKPEDTAVYFCAADRRINYDGLDMDYWGQGTQVTVSS” the entry was “low polyreactivity”; with “QVQLVESGGGLVQAGGTLRLSCAASGRTFGFYAMGWYRQAPGKERELVAVITRGGYTSYADSVKGRFTISRDNAKNTVYLQMNSLKPEDTAVYYCAAGWHYWDHRYDYWGQGTQVTVSS”, “high polyreactivity”; with “QVQLVESGGGLVQAGGSLRLSCAASGRTFEVYAMGRYRQPPGKERELVATITYSGGITYYADSVKGRFTISRDNAKNTVYLQMNSLKPEYTAVYYPICVGGDYDYWGQGTQVTVSS”, “low polyreactivity”. The same measure for “QVQLVESGGGLVQAGGSLRLSCAASGSIFTFNAMGWYRQAPGKERELVATISRRTGSTYYADSVKGRFTISRDNAKNTVYLQMNSLKPEDTAVYYCAARRRVYWYNHYNYWGQGTQVTVSS”: “high polyreactivity”.

For “QVQLVESGGGLVQAGGSLRLSCAASGYTFGTYDMGWYRQAPGNERELGAAISLGGSTNYADSVKGPFTISRDNAKNTVYLQMYSLKPEDTAVYYCAAEVNVGTLLLSVIVEDGDYWGQGTQVTVSS”, the “polyreactivity (PSR sort gate)” value is recorded as “low polyreactivity”. With “QVQLVESGGGLVQAGGSLRLSCAASGSIFQYNVKGWYIQAPGTERELVAAITSGGSTYYADSVKGRFTISRDNAKNTVYLQMNSLKPEDTAVYYCARDIRRKGFRYDYWGQGTQVTVSS” the entry was “high polyreactivity”; with “QVQLVESGGVLVQAGGSLRLSCAASGRIFRYNTMGWDRQAPGKERELVATITRGSSTNYADSVKGRFTISRDNAKNTVYLQMNSLKPEDTAVYYCAASVWKWHSYLGRYSYIGYDYWGQGTQVTVSS”, “high polyreactivity”; with “QVQLVESGGGLVQAGGSLRLSCAASGTIFDVNALGWYRQAPGKERELVAAITSGGGTNYADSVKGRFTISRDNAKNTVYLQMNSLKPEDTAVYYCAADHVYYDYDYWGQGTQVTVSS”, “low polyreactivity”. The same measure for “QVQLQESGGGLVQAGGSLRLSCAASGNISVTGFMGWYRQAPGKERELVASIGIGGTTYYADSVKGRFSISRDNAKNTVYLQMNSLKPEDTAVYYCAARYLYYAYSYWCQGTQVTVSS”: “low polyreactivity”; for “QVQLVESGGVLVQAGGSLRLSCAASGSIFNYYAMGWYRQAPGKERELVAGITTSGGSTYYADSVKARFTISRDNEKNSVYLQMNSLTPEDTAVYYCAAYDYISSTYFLDDYWGQGTQVTVSS”: “low polyreactivity”; for “QVQLVESGGGLVQAGGSLRLICAPSGIIFTSNTMGWSRQAPGNERECVASINWNGSSTYADSVKGRFTISRDIAKNTVYLQMNSLKPEDTAVFYCNADYNRNSVQFSLYDYWGQGTQVTVSS”: “low polyreactivity”.

Consider “QFQLVESGGGLVQAGGSLRLSCAASGSIFSYNAMGWYIQAPGKERELVASITSGGRTYYADSVKGRFTISRDNAKNTVYLQMYSLKPEDTAVYYCAAYQTGLHGFYSWGQGTQVTVSS”, for which the “polyreactivity (PSR sort gate)” value is “high polyreactivity”. With “QVQLVESGGGLVQAGGSLRLCCAASGSIFLLNAMGWYRQAPGKERELVAAISWGGGSTYYADSVKGRFTISRDNAKNTVYLQMNSLKPEDTAVYYCNASVTLGLEVDYSGQGTQVTVSS” the entry was “low polyreactivity”; with “QVQLVESGGGLVQAGGRLRLSCAASGSNFYENAMVWYRQAPGKERELVADITNSGGSTYYADSVKGRFTISRDNAKNTVYLQMNSLIPEDTAVFYFATDVGYFYTVVGGYDYWGQGTQVTVSS”, “low polyreactivity”. In the case of “QVQLVESGGGLVQAGGSLRLSCAASGFIYKINAMGWYRQAPGKERELVARITSGGRTNYADSVKGRFTISRDNAKNTVYLQMDSLKPEDTAVYYCAARYLAYGPTGYLYGYNYWGQGTQVTVSS”, the “polyreactivity (PSR sort gate)” value is “high polyreactivity”.

(Values after the nanobody polyreactivity screen of Harvey et al. (2022).)
